Measured values taken from patent US20140105915A1 (GlaxoSmithKline, published 2014).
Residue numbers refer to the chain shown, from its start.

Key:
[1] = target: T1, recombinant human BCMA Fc 4-53 (human); assay: competition ELISA, coated recombinant human BCMA Fc 4-53, blocked ligand recombinant human BAFF (6 ng/mL), biotinylated anti-BAFF detection [A]
T1 construct: also called CD33-hBCMA ECD (4-53) TEV-Fc; recombinant BCMA coated on an ELISA plate
Method: 96 well flat bottomed plates were coated overnight with 1 μg/mL solution of recombinant human BCMA Fc 4-53 in PBS. Following a wash step using 0.05% TWEEN20, plates were blocked with 2% Bovine Serum Albumin solution in PBS for 1 hour at room temperature. […] 40 μL of 2% BSA was added to the relevant control wells. […] Equivalent volume of 2% BSA was added to the relevant control wells. Plates were allowed to incubate for 2 hours at room temperature, after which they were washed as before. […] Following a wash step, 50 μL of a 1:4000 dilution of Streptavidin-HRP (Amersham RPN4401) was added to each well and incubated for 30 minutes at room temperature. The wash process was repeated again followed by the addition of 100 μL of Tetramethylbenzidine substrate solution (T8665, Sigma) into each well. Plates were incubated for 20-25 minutes at room temperature, wrapped in foil. The reaction was stopped with the addition of 100 μL of 1M H₂SO₄. Optical density was determined at 450 nm using Spectromax reader.

human BCMA on cells [2] = target: T2, human BCMA on cells (human, UniProt Q02223 1-184); assay: cell-based or functional assay
T2 sequence (looked up): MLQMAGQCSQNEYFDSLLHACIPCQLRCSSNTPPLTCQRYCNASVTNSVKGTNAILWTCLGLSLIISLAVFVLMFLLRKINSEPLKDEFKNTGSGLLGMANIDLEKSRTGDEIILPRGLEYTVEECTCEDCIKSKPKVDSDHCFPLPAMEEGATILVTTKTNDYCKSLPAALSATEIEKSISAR

[3] = target: T3, recombinant human BCMA (in house) (human, UniProt Q02223 4-53, limits assumed); assay: SPR ProteOn XPR36, mAb captured on Protein A, 25C, run 2
T3 construct: Analyte in the ProteOn runs; also called Human in house BCMA; In house human BCMA
T3 chain (looked up): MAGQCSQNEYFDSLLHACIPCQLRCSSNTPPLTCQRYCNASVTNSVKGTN
Method: The initial screen of CA8 chimeric and humanised variants was carried out on the ProteOn XPR36 (Biorad). The method was as follows; Protein A was immobilised on a GLC chip (Biorad, Cat No: 176-5011) by primary amine coupling, CA8 variants were then captured on this surface and recombinant human BCMA (in house or commercial US Biological, B0410) materials (run 2 only)) passed over at 256, 64, 16, 4, 1 nM with a OnM injection (i.e. buffer alone) used to double reference the binding curves, the buffer used is the HBS-EP buffer. 50 mM NaOH was used to regenerate the capture surface. The data was fitted to the 1:1 model using the analysis software inherent to the ProteOn XPR36. […] Both runs were carried out at 25° C.

[4] = target: T3, recombinant human BCMA (in house); assay: SPR ProteOn XPR36, mAb captured on Protein A, 25C, run 1
human BCMA on cells [5] = target: T2, human BCMA on cells; assay: FMAT, HEK293 cells transfected with human BCMA, anti-human IgG FMAT Blue detection
Method: (§1) Cryopreserved transfected human, cyno BCMA and mock transfected HEK293 cells were recovered from LN2 storage. […] The assay plates were left for a minimum of 90 minutes before the result was read on the AB18200 (FMAT) plate reader.

[6] = target: T4, cyno BCMA on HEK293 cells (cyno, UniProt A0A2K5UD97 1-183); assay: FMAT, HEK293 cells transfected with cyno BCMA, anti-human IgG FMAT Blue detection
T4 construct: whole, on cells; also called cyno BCMA HEK293
T4 sequence (A0A2K5UD97 entry or part of it): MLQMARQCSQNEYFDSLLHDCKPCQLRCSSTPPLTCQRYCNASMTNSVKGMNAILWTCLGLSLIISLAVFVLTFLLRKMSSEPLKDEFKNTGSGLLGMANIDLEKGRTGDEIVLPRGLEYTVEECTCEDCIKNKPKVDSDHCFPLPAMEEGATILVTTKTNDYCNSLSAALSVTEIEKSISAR
Method: as §1

B1: J6M0 potelligent (antibody, human IgG1, kappa, V domains shown)
VH: QVQLVQSGAEVKKPGSSVKVSCKASGGTFSNYWMHWVRQAPGQGLEWMGATYRGHSDTYYNQKFKGRVTITADKSTSTAYMELSSLRSEDTAVYYCARGAIYDGYDVLDNWGQGTLVTVSS
VL: DIQMTQSPSSLSASVGDRVTITCSASQDISNYLNWYQQKPGKAPKLLIYYTSNLHSGVPSRFSGSGSGTDFTLTISSLQPEDFATYYCQQYRKLPWTFGQGTKLEIKR
modifications: afucosylated (Potelligent) Fc glycan
notes: Same chains as J6M0, made in FUT8-deficient cells (afucosylated); human IgG1/kappa; also called J6M0 potelligent version; afucosylated (Potelligent) J6M0
Question: With B1 as the binder, how does the “IC50 (read off the curve)” value [1] read?
Answer: The value was roughly 0.8 µg/mL.

Question: What about the “IC50 for inhibition of APRIL signalling (phosphorylated NFkappaB in washed H-929 cells, MSD assay)” value (human BCMA on cells [2]) of the same binder?
Answer: Its value is 2.43 µg/mL.

Question: And the “IC50 for inhibition of BAFF signalling (phosphorylated NFkappaB in washed H-929 cells, MSD assay)” value (human BCMA on cells [2])?
Answer: The value was 0.91 µg/mL.

B2: CA8 humanised J7M1 (antibody, human IgG1, kappa, V domains shown)
VH: B1 VH with G27Y, S30T
VL: B1 VL with F71Y
notes: humanised, human IgG1/kappa
Question: Does B2 bind [3]?
Answer: Result: binds

B3: CA8 humanised J8M1 (antibody, human IgG1, kappa, V domains shown)
VH: B1 VH with G27Y, S30T, A97T
VL: B1 VL with F71Y
notes: humanised, human IgG1/kappa
Question: Does B3 bind [3]?
Answer: Result: binds

B4: CA8 humanised J8M2 (antibody, human IgG1, kappa, V domains shown)
VH: B1 VH with G27Y, S30T, A97T
VL: B1 VL with M4L, K45E, L47V, F71Y
notes: humanised, human IgG1/kappa
Question: Does B4 bind [3]?
Answer: Result: binds

B5: S307118G03 humanised H4L1 (antibody, human IgG1, kappa, V domains shown)
VH: QVQLVQSGAEVKKPGSSVKVSCKASGYTFTDYYMKWVRQAPGQGLEWMGEIYPNNGGITYNQKFKGRVTITADKSTSTAYMELSSLRSEDTAVYYCADGYEFVYWGQGTLVTVSS
VL: B1 VL with D28G, N53S, F71Y, R92S
notes: humanised, human IgG1/kappa
Question: Does B5 bind [4]?
Answer: Result: no binding (tested: 256 nM (highest analyte concentration))

B6: CA8 humanised J7M2 (antibody, human IgG1, kappa, V domains shown)
VH: B1 VH with G27Y, S30T
VL: B1 VL with M4L, K45E, L47V, F71Y
notes: humanised, human IgG1/kappa
Question: Does B6 bind [3]?
Answer: Result: binds

B7: CA8 humanised J7M0 (antibody, human IgG1, kappa, V domains shown)
VH: B1 VH with G27Y, S30T
VL: B1 VL
notes: humanised, human IgG1/kappa
Question: Does B7 bind [3]?
Answer: Result: binds

B8: CA8 humanised J8M0 (antibody, human IgG1, kappa, V domains shown)
VH: B1 VH with G27Y, S30T, A97T
VL: B1 VL
notes: humanised, human IgG1/kappa
Question: Does B8 bind [3]?
Answer: Result: binds

B9: CA8 humanised J6M0 (antibody, human IgG1, kappa, V domains shown)
VH: B1 VH
VL: B1 VL
notes: humanised, human IgG1/kappa; also called CA8 J6M0; humanised J6M0 (wild type)
Question: B9 was tested. Which “IC50 (read off the curve)” value [1] did it give?
Answer: The value was roughly 0.8 µg/mL.

B10: CA8 humanised J9M2 (antibody, human IgG1, kappa, V domains shown)
VH: B1 VH with A24G, G27Y, S30T, M48I, V68A, I70L, K74T, A97T
VL: B1 VL with M4L, K45E, L47V, F71Y
notes: humanised, human IgG1/kappa
Question: Does B10 bind [3]?
Answer: Result: binds

B11: CA8 chimera (antibody, V domains shown)
VH: EVQLQQSGAVLARPGASVKMSCKGSGYTFTNYWMHWVKQRPGQGLEWIGATYRGHSDTYYNQKFKGKAKLTAVTSTSTAYMELSSLTNEDSAVYYCTRGAIYNGYDVLDNWGQGTLVTVSS
VL: DIQLTQTTSSLSASLGDRVTISCSASQDISNYLNWYQQKPDGTVELVIYYTSNLHSGVPSRFSGSGSGTDYSLTIGYLEPEDVATYYCQQYRKLPWTFGGGSKLEIKR
notes: also called chimeric CA8; human chimeric CA8
Question: What does the source list for B11?
Answer: EC50 (read off the curve) (human BCMA on cells [5]): ~0.4 µg/mL; EC50 (read off the curve) [6]: ~0.3 µg/mL
